{
  "source": "patent US20200164026A1",
  "about": "“Intranasal Delivery of Cell Permeant Therapeutics” (The Trustees of Columbia University in the City of New York, priority 2010, published 2020)",
  "key": {"[1]": {"test_system": "Pen1-XBIR3 (Penetratin1 disulfide-linked to the BIR3 domain from XIAP)", "sequence (chain, as listed by the source)": "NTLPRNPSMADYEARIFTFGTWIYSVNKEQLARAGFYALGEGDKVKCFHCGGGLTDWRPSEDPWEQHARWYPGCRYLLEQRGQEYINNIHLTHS"}, "[2]": {"test_system": "caspase-cleaved tau (caspase-6 substrate)", "test": "Intranasal Pen1-C6DN prior to 1 hr tMCAo in mice; western blot for caspase-cleaved tau (anti-TauC3)", "type": "in vivo, mouse", "conditions": "intranasal 1 hr prior to 1 hr tMCAo, 24 hpr", "excerpt": "To determine if a direct blockade of caspase-6 would provide protection from ischemia, a Pen1-linked caspase-6 domininat negative (Pen1-C6DN) construct was utilized. Pen1-C6DN was delivered by intransasal bolus to mice 1 hr prior to tMCAo and mice were then subjected to 1 hrMCAo followed by reperfusion. Animals were sacrificed at 24 hpr and core and penumbra regions of brain prepared for Western blotting. As depicted in FIG. 7, protein lysate from the core and penumbra regions of the stroke infarct (24 hpr) was isolated. Ipsilateral (stroked) hemispheres contained abundant caspase-cleaved tau when only treated with vehicle.\nIntranasal Pen1-C6DN Prevents Cleavage of Caspase-6 Substrates. Caspase-6 catalytic dominant negative (C6DN; C285A) was isolated and purified as described previously. Denault, J. B. and G. S. Salvesen, Expression, purification, and characterization of caspases. Curr Protoc Protein Sci, 2003. Chapter 21: p. Unit 21 13. Pen1 (Q-Biogene) was mixed at an equimolar ratio with purified C6DN and incubated overnight at 37° C. to generate disulfide-linked Pen1-C6DN. Linkage was assessed by 20% SDS-PAGE and Western blotting with anti-His and anti-Caspase-6 antibodies.\nMale C57BL/6 mice (2-3 months old; ≥25 g) were anesthetized using isoflurane (2%) delivered via an anesthesia mask. […]"}, "[3]": {"target": "T1, Pen1-C6DN (Penetratin1 disulfide-linked to caspase-6 catalytic dominant negative, C285A)", "T1 chain 1": "RQIKIWFQNRRMKWKK", "T1 chain 2": "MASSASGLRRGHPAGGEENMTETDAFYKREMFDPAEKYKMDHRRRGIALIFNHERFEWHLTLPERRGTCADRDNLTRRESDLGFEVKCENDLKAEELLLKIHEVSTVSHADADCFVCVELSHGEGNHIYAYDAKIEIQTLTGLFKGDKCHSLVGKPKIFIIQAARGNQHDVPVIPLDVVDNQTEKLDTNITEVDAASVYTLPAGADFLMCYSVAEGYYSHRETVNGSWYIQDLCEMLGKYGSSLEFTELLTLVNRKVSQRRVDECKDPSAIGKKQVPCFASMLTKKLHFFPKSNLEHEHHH"}},
  "data": [
    {"molecule": "caspase-9 (rat, endogenous in brain or hippocampal neurons)", "values": [
      {"measurement": "C1-C6 processes (count of cleaved caspase-6 positive processes), intranasal delivery, 12 hpr", "setting": "[1]", "result": "Vehicle-12 hpr: 144.0±28.50, n=3 vs. Pen1-XBIR3-12 hpr: 102.7±23.15, n=3; p=0.3233"},
      {"measurement": "C1-C6 processes (count of cleaved caspase-6 positive processes), intranasal delivery, 24 hpr", "setting": "[1]", "result": "Vehicle-24 hpr: 109.7±12.73, n=3 vs. Pen1-XBIR3-24 hpr: 57.33±10.04, n=3; p=0.032"},
      {"measurement": "immunostaining for caspase-9 and cleaved caspase-6 at 24 hpr after convection enhanced delivery to rat striatum", "setting": "[1]", "result": "Pent-XBIR3 inhibited appearance of c1-C6 and caspase-9 in cell bodies and processes"},
      {"measurement": "immunostaining for cleaved caspase-6 and caspase-9 at 24 hpr (FIG. 3D)", "setting": "[1]", "result": "The caspase-9 specific inhibitor, Pen1-XBIR3, blocks the increase in caspase-9 and the induction of c1-C6 observed at 24 hpr"}
    ]},
    {"molecule": "Pen1-C6DN: Caspase-6 catalytic dominant negative (C6DN; C285A) disulfide-linked to Penetratin1 (SEQ ID NO: 11) (conjugate) peptide: RQIKIWFQNRRMKWKK MASSASGLRRGHPAGGEENMTETDAFYKREMFDPAEKYKMDHRRRGIALIFNHERFEWHLTLPERRGTCADRDNLTRRESDLGFEVKCENDLKAEELLLKIHEVSTVSHADADCFVCVELSHGEGNHIYAYDAKIEIQTLTGLFKGDKCHSLVGKPKIFIIQAARGNQHDVPVIPLDVVDNQTEKLDTNITEVDAASVYTLPAGADFLMCYSVAEGYYSHRETVNGSWYIQDLCEMLGKYGSSLEFTELLTLVNRKVSQRRVDECKDPSAIGKKQVPCFASMLTKKLHFFPKSNLEHEHHH", "values": [
      {"measurement": "caspase-cleaved tau in core and penumbra lysate", "setting": "[2]", "result": "reduced cleavage of caspase-cleaved tau"}
    ]},
    {"molecule": "caspase-6 (mouse, endogenous in brain) (protein) MTETDGFYKSREVFDPAEQYKMDHKRRGVALIFNHERFFWHLTLPERRGTNADRDNLTRRFSDLGFEVKCFNDLRAEELLLKIHEVSTSSHIDADCFICVFLSHGEGNHVYAYDAKIEIQTLTGLFKGDKCQSLVGKPKIFIIQACRGSQHDVPVVPLDMVDHQTDKLDNVTQVDAASVYTLPAGADFLMCYSVAEGYYSHRETVNGSWYIQDLCEMLARYGSSLEFTELLTLVNRKVSQRRVDFCKDPDAIGKKQVPCFASMLTKKLHFCPKPSK", "values": [
      {"measurement": "caspase-cleaved tau in mouse brain lysate at 24 hpr (western blot, anti-TauC3)", "setting": "[3]", "result": "Pen1-C6DN reduced cleavage of caspase-cleaved tau"}
    ]}
  ]
}
